Results on 2 molecules are retold here after patent publication EP2225268B1.

The target of assay [1] is Wild-type recombinant human NGAL monomer expressed in CHO cells (human) (UniProt P80188). Nature of the assay: … sandwich CMIA, capture HYB 211-01, detection acridinium-HYB 211-02; curve fit with monomer calibrators; target 5 ng/mL.
The target of assay [2] is Wild-type recombinant human NGAL dimer expressed in CHO cells (human) (UniProt P80188). Described as above.
In assay [3] the target is Wild-type recombinant human NGAL dimer calibrators treated with DTT (human) (UniProt P80188). Described as above.
Assay [4] deals with Wild-type recombinant human NGAL monomer expressed in CHO cells (human) (UniProt P80188). Nature of the assay: … sandwich CMIA, capture HYB 211-01, detection acridinium-HYB 211-02; calibrator E, NGAL 600 ng/mL.
The target in assay [5] is Wild-type recombinant human NGAL dimer expressed in CHO cells (human) (UniProt P80188). The description is as above.
Assay [6] addresses Wild-type recombinant human NGAL dimer calibrators treated with DTT (human) (UniProt P80188). Described as above.
Assay [7] addresses Wild-type recombinant human NGAL monomer expressed in CHO cells (human) (UniProt P80188). Kind of assay: … sandwich CMIA, capture HYB 211-01, detection acridinium-HYB 211-02; NGAL 250 ng/mL.
For assay [8], the target named is Wild-type recombinant human NGAL dimer expressed in CHO cells (human) (UniProt P80188). The assay is described as above.
Assay [9] concerns the target Wild-type recombinant human NGAL dimer calibrators treated with DTT (human) (UniProt P80188). The assay is described as above.
Assay [10] concerns the target Native NGAL purchased from Diagnostics Development (Uppsala, Sweden), non-reduced (UniProt P80188). The assay is described as above.
Assay [11] concerns the target Wild-type recombinant human NGAL monomer expressed in CHO cells (human) (UniProt P80188). Nature of the assay: … sandwich CMIA, capture HYB 211-01, detection acridinium-HYB 211-02; curve fit with monomer calibrators; target 50 ng/mL.
Assay [12] deals with Wild-type recombinant human NGAL dimer expressed in CHO cells (human) (UniProt P80188). The description is as above.
The target of assay [13] is Wild-type recombinant human NGAL dimer calibrators treated with DTT (human) (UniProt P80188). The description is as above.
Assay [14] deals with Native NGAL (plus DTT - reduced) (UniProt P80188). Nature of the assay: … sandwich CMIA, capture HYB 211-01, detection acridinium-HYB 211-02; same sample reduced with DTT.
For assay [15], the target named is Wild-type recombinant human NGAL dimer expressed in CHO cells (human) (UniProt P80188). Nature of the assay: … sandwich CMIA, capture HYB 211-01, detection acridinium-HYB 211-02; calibrator F, NGAL 1000 ng/mL.
For assay [16], the target named is Wild-type recombinant human NGAL dimer calibrators treated with DTT (human) (UniProt P80188). The assay is described as above.
Assay [17] has the same target. Kind of assay: … sandwich CMIA, capture HYB 211-01, detection acridinium-HYB 211-02; DTT-treated against untreated dimer calibrator; target 250 ng/mL.
The target of assay [18] is Wild-type recombinant human NGAL dimer calibrators with TCEP in the reaction mixture (human) (UniProt P80188). Kind of assay: … sandwich CMIA, capture 1-2322-455, detection acridinium-1-903-430; TCEP in reaction; NGAL 600 ng/mL.
The target is the same in assay [19]. Kind of assay: … sandwich CMIA, capture 1-2322-455, detection acridinium-1-903-430; TCEP in reaction; NGAL 5 ng/mL.
Assay [20] has the same target. Nature of the assay: … sandwich CMIA, capture 1-2322-455, detection acridinium-1-903-430; TCEP in reaction; NGAL 1000 ng/mL.
The target in assay [21] is Wild-type recombinant human NGAL monomer expressed in CHO cells (human) (UniProt P80188). Kind of assay: … sandwich CMIA, capture 1-2322-455, detection acridinium-1-903-430; monomer calibrator plus TCEP; NGAL 5 ng/mL.
For assay [22] the target is unchanged. Nature of the assay: … sandwich CMIA, capture 1-2322-455, detection acridinium-1-903-430; curve fit with monomer calibrators; target 600 ng/mL.
In assay [23] the target is Wild-type recombinant human NGAL dimer expressed in CHO cells (human) (UniProt P80188). Described as above.

In the case of “anti-NGAL antibody HYB 211-01 from AntibodyShop A/S, Gentofte, Denmark”, the Curve Fit Results in assay [1] stood at 5.1 ng/mL; in assay [2] it was 1.4 ng/mL; in [3], 4.7 ng/mL; in [11], 49.5 ng/mL; in assay [12], 14.1 ng/mL; in assay [13], 49 ng/mL. For the same molecule, the RLUs in assay [4] amounted to 691000 RLUs; in assay [5], 282000 RLUs; in assay [6] it was 676000 RLUs; in [7], 396000 RLUs; in [8] it was 142000 RLUs; in assay [9], 378000 RLUs. The RLUs in assay [10] was found to be 620000 RLUs; in [15], 390000 RLUs; in assay [16] it was 855000 RLUs. Moreover, in assay [14], the NGAL concentration detected was found to be 23.8 ng/mL. Further, the % Increase due to DTT in assay [17] is 229%.

B1: antibody produced by murine hybridoma cell line 1-2322-455 having ATCC Accession No. PTA-8024 (antibody, V domains shown)
VH: EVQLVESGGGLVQPGGSLKLSCAASGFTFNNYYMSWVRQTPERRLEWVAYISSSGGSTYYSDSVRGRFTISRDTARNTLYLQMTSLKSEDTAMYYCARHFGDYSYFDYWGQGTTLTVSS
VL: DIQMTQSPASLSASVGETVTITCRASENFYSYLAWYQQKQGKSPQLLVYNAKTLAEGVPSRFSGSGSGTQFSLKINSLQPEDFGTYYCQHHYDIPLTFGAGTKLELKR
In the case of B1, the RLUs worked out at 989000 RLUs in assay [18], 15000 RLUs in assay [19], 1.37e+06 RLUs in assay [20] and 29300 RLUs in assay [21]. For the same molecule, the results for the Curve Fit Results in assay [22] and in [23] were 591 ng/mL and 173 ng/mL, respectively.
